Laboratory results reported in paper PMC10798645.

Columns and labels:
[1] = target: SARS-CoV-2 Omicron (BA.1) Spike (pCAGGS-SARS-CoV-2 BA.1 Spike) (UniProt P0DTC2); settings: parent: est. 1.0; read off a plot
[2] = target: SARS-CoV-2 Wuhan-1 Spike (S), C-terminal 6xHis (pcDNA5) (UniProt P0DTC2); settings: parent: est. 1.0; read off a plot

## HA-tagged full-length BST2 (pcDNA5) (from UniProt Q10589) EC2Ala
[1]
  ratio to parent: 1
[2]
  ratio to parent: 0.74
